In PMC3399765 (2011):

Target: SMB20 peptide (Homo sapiens, UniProt P14678)
Assay: ITC

B1: FBP21 WW domains (protein)
chain: DPSKGRWVEGITSEGYHYYYDLISGASQWEKPEGFQGDLKKTAVKTVWVEGLSEDGFTYYYNTETGESRWEKPDD
Kd: 16.4 µM
